Experiment [1] concerns the target T1, recombinant human CD30L isoleucine zipper (huCD30L LZ) (human, UniProt P32971 63-234).
T1 sequence: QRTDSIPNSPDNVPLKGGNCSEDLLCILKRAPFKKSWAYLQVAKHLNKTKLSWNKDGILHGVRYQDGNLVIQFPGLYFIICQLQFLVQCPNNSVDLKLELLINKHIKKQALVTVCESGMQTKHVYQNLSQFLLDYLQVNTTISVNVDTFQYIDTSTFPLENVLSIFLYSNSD
Put plainly: cell-based or functional assay.

Experiment [2] has as its target T2, native human CD30L expressed on Ramos cells (human, UniProt P32971 1-234).
T2 sequence: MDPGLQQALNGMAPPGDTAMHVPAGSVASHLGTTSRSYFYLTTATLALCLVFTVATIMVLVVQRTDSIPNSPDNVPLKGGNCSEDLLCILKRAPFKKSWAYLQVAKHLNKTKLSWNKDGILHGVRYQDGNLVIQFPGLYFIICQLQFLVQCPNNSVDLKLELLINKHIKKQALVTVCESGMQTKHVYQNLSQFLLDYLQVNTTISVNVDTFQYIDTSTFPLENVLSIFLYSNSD
As to the kind of experiment: cell-based or functional assay.

Another experiment has as its target T3, cyno CD30L LZ (cynomolgus monkey, UniProt A0A7N9CVX7 63-234).
T3 sequence: T1 sequence with V13I, K16R, I142V, I165V
As to the kind of experiment: cell-based or functional assay.

Experiment [3] addresses T4, FLAG-hCD30L-EC (N153Q) treated with PNGaseF (human).
T4 construct: also called FLAG-hCD30L-EC + PNGaseF
T4 chain: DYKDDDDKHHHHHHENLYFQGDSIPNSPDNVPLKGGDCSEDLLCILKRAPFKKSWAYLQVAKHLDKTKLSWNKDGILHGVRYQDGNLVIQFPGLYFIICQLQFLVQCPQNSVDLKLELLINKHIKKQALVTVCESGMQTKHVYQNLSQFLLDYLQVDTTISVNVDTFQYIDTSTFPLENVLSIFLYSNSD
Put plainly: HX-MS, 6 uM hCD30L with 6.6 uM mAb.

Experiment [4] addresses T1, recombinant human CD30L isoleucine …. Put plainly: blocking of human CD30L LZ binding to K299 cells (CD30).

Substitutions are numbered along the chain they refer to.

The IC50 is the concentration at which inhibition is half-maximal.

B1: Antibody A1 (antibody, V domains shown)
VH: QVQLQESGPGLVKPSETLSLTCTVSGGSISSYIWSWIRQPAGKGLEWIGRIYASGNTNYNPSLKSRVTISVDTSKNQFSLKLSSMTAADTAVYYCARDYRVAGTYYYYYGLDVWGQGTTVTVSS
VL: QSALTQPASVSGSPGQSITISCTGTSSDVGVYDYVSWYQQHPGKAPKLMIYEVSNRPSGVSNRFSGSKSGNTASLTISGLQTEDEADYYCSSYTSRSTWVFGGGTKLTVL
notes: also called mAb A1; Antibody A1 IgG2
For the molecule B1, the “IC50, inhibition of IL-8 release (K299 single cell assay with huCD30L LZ)” value in experiment [1] was determined as 2.7 nM. Further, the “IC50, inhibition of IL-8 release (K299/Ramos dual cell assay)” value in experiment [2] is 0.033 nM. In the experiment with cyno CD30L LZ, the “IC50, inhibition of IL-8 release (K299 single cell assay with cyno CD30L LZ)” value was 2.4 nM. Also, the binding result in experiment [3] is “binds”. Besides, in experiment [4], the IC50 turned out to be 1.4 nM.

B2: Antibody A1 IgG1 (antibody, V domains shown)
VH: B1 VH
VL: B1 VL
B2: in experiment [2], the “IC50, inhibition of IL-8 release (K299/Ramos dual cell assay)” value was determined as 0.032 nM. In addition, in the experiment with cyno CD30L LZ, the “IC50, inhibition of IL-8 release (K299 single cell assay with cyno CD30L LZ)” value was found to be 1.5 nM.

Source of the values: patent publication US20220112295A1 (Novo Nordisk, published 2022).
